Source: the supplement of paper PMC12338614
± gives the uncertainty stated by the source.

B1: library; numbered along this chain (parent)
chain: MEVVDPQQLGMFTEGELMSVGMDTFIHRIDSTEVIYQPRRKRAKLIGKYLMGDLLGEGSYGKVKEVLDSETLCRRAVKILKKKKLRRIPNGEANVKKEIQLLRRLRHKNVIQLVDVLYNEEKQKMYMVMEYCVCGMQEMLDSVPEKRFPVCQAHGYFCQLIDGLEYLHSQGIVHKDIKPGNLLLTTGGTLKISDLGVAEALHPFAADDTCRTSQGSPAFQPPEIANGLDTFSGFKVDIWSAGVTLYNITTGLYPFEGDNIYKLFENIGKGSYAIPGDCGPPLSDLLKGMLEYEPAKRFSIRQIRQHSWFRKKHPPAEAPVPIPPSPDTKDRWRSMTVVPYLEDLHGADEDEDLFDIEDDIIYTQDFTVPGQVPEEEASHNGQRRGLPKAVCMNGTEAAQLSTKSRAEGRAPNPARKACSASSKIRRLSACKQQ

Variants of: B1
Assay: STK11 functional score (HeLa growth suppression), rescaled enrichment; synonymous median = 1, nonsense median = 0 (normalised score)
Conditions: with HeLa; variant type: missense
Method in brief: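 HeLa cells carrying an AAVS1 landing pad received codon-optimised STK11 libraries made by codon randomisation (POPCode), integrated by Bxb1, with three regions each transfected three times. Integrants that were BFP-negative and mCherry-positive were sorted by FACS 4–5 days after electroporation and then grown for about two weeks. Tiled amplicons from gDNA were sequenced on NextSeq at ~2 million reads per tile. The functional score is a wild-type-corrected log ratio of post- to pre-selection counts, rescaled to the synonymous and nonsense medians, merged across codons and replicate transfections, and given a bootstrapped error.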

Row | Variant | STK11 functional score
1 | E121V | 1.41 ± 0.14
2 | D229Q | 1.49 ± 0.46
3 | S169V | 0.428 ± 0.21
4 | S169R | 0.882 ± 0.35
5 | S216M | 0.227 ± 0.12
6 | F354M | 1.51 ± 0.23
7 | F354K | 1.57 ± 0.22
8 | L195D | 1.64 ± 0.15
9 | L195R | 0.0408 ± 0.11
10 | Y131L | 1.36 ± 0.18
11 | L282I | 0.764 ± 0.1
12 | L282S | 0.442 ± 0.08
13 | L245I | 0.581 ± 0.1
14 | G187A | 1.09 ± 0.18
15 | G187R | 0.864 ± 0.65
16 | P324S | 1.45 ± 0.11
17 | P324K | 0.708 ± 0.7
18 | A205F | 1.35 ± 0.2
19 | A205W | 1.7 ± 0.38
20 | E120A | 0.817 ± 0.13
21 | E120V | 1.09 ± 0.086
22 | S299N | 1.59 ± 0.16
23 | Q7C | 1.55 ± 0.45
24 | V368W | 0.786 ± 0.6

Row | Variant | STK11 functional score
25 | D358W | 1.46 ± 0.16
26 | L285Q | -0.0107 ± 0.26
27 | T189N | 0.455 ± 0.53
28 | L190S | 0.0644 ± 0.18
29 | C210F | 1.04 ± 0.12
30 | C210G | 1.03 ± 0.12
31 | C134P | 1.62 ± 0.19
32 | C134W | 0.131 ± 0.097
33 | H306A | 1.38 ± 0.39
34 | H306V | 0.418 ± 0.39
35 | H306W | -0.368 ± 0.084
36 | H306L | 0.85 ± 0.59
37 | L386H | 0.959 ± 0.14
38 | L386W | 1.13 ± 0.25
39 | R297F | -0.355 ± 0.076
40 | V77L | 1.04 ± 0.22
41 | V77S | 0.46 ± 0.12
42 | L184N | 0.425 ± 0.35
43 | L184C | 0.804 ± 0.36
44 | G233Y | 1.04 ± 0.94
45 | A318F | 1.6 ± 0.22
46 | F264A | 1.16 ± 0.36
47 | T336R | 1.54 ± 0.28
48 | K96Q | 0.724 ± 0.15

Row | Variant | STK11 functional score
49 | S428T | 1.56 ± 0.24
50 | I79P | 0.0986 ± 0.19
51 | D350N | 1.07 ± 0.72
52 | P314V | 1.16 ± 0.37
53 | Q123W | 0.588 ± 0.23
54 | C278P | 1.22 ± 0.19
55 | C278S | 1.21 ± 0.18
56 | P89G | 0.213 ± 0.086
57 | P89R | 0.754 ± 0.1
58 | L182S | 0.561 ± 0.14
59 | L182P | -0.0858 ± 0.071
60 | A198P | 0.974 ± 0.23
61 | A198I | -0.192 ± 0.12
62 | S378N | 1.56 ± 0.47
63 | R104G | 0.389 ± 0.56
64 | T395W | 1.61 ± 0.26
65 | T395E | 1.33 ± 0.25
66 | P294T | 1.09 ± 0.31
67 | H313I | 1.45 ± 0.24
68 | L101M | 1.62 ± 0.22
69 | A347Y | 1.34 ± 0.44
70 | E265Q | 0.752 ± 0.43
71 | D352Q | 0.828 ± 0.15
72 | D352K | 1.55 ± 0.13

Row | Variant | STK11 functional score
73 | I99L | 0.855 ± 0.1
74 | I248D | 0.0228 ± 0.096
75 | A295W | 1.36 ± 0.2
76 | S240W | -0.126 ± 0.094
77 | S240I | 0.369 ± 0.095
78 | H168V | 0.473 ± 0.13
79 | T367V | 1.58 ± 0.26
80 | I172S | 0.549 ± 0.27
81 | L400K | 0.775 ± 0.24
82 | L400V | 1.41 ± 0.26
83 | N266K | 0.318 ± 0.26
84 | Q305G | 1.52 ± 0.3
85 | Q305W | 0.981 ± 0.4
86 | H174L | 0.234 ± 0.067
87 | Q170M | 1.54 ± 0.25
88 | F255M | 0.792 ± 0.1
89 | K146A | 1.29 ± 0.39
90 | S404W | 1.43 ± 0.42
91 | S31T | 1.5 ± 0.11
92 | Q382H | 1.15 ± 0.35
93 | D208Q | 1.58 ± 0.3
94 | L263W | -0.0482 ± 0.1
95 | R28G | 0.685 ± 0.16
96 | M335H | -0.482 ± 0.11

Row | Variant | STK11 functional score
97 | Q137H | 0.922 ± 0.5
98 | V372D | 1.53 ± 0.33
99 | N119R | 1.26 ± 0.17
100 | T212V | 0.545 ± 0.091
101 | T212C | 1.32 ± 0.41
102 | G251S | 1.01 ± 0.2
103 | Y36L | 1.03 ± 0.23
104 | L67Y | 0.0744 ± 0.31
105 | A218D | 0.324 ± 0.12
106 | A76S | 1.12 ± 0.2
107 | I161H | -0.2 ± 0.12
108 | K62S | 1.39 ± 0.32
109 | N181F | -0.0897 ± 0.042
110 | V173P | 0.128 ± 0.49
111 | I356E | 1.62 ± 0.14
112 | R331L | 1.2 ± 0.16
113 | Q220H | 0.87 ± 0.2
114 | I424G | 0.657 ± 0.18
115 | K64C | 0.813 ± 0.53
116 | L286D | -0.166 ± 0.12
117 | L286E | 0.235 ± 0.36
118 | L286Y | 1.36 ± 0.45
119 | L286I | 1.36 ± 0.24
120 | E357P | 1.58 ± 0.14

Row | Variant | STK11 functional score
121 | E357G | 1.47 ± 0.23
122 | I267H | 1.45 ± 0.35
123 | I267N | 0.995 ± 0.36
124 | I88F | 0.793 ± 0.079
125 | Y246I | 1.13 ± 0.095
126 | Q302H | 1.12 ± 0.3
127 | G58I | -0.159 ± 0.1
128 | L117A | 1.27 ± 0.31
129 | I361M | 1.09 ± 0.39
130 | Q399G | 1.51 ± 0.28
131 | K81Y | 1.29 ± 0.37
132 | P321M | 1.61 ± 0.27
133 | P321L | 1.17 ± 0.25
134 | G10C | 1.4 ± 0.19
135 | G56F | 0.171 ± 0.08
136 | G163A | 1.05 ± 0.2
137 | L353T | 1.45 ± 0.16
138 | Y126W | 0.105 ± 0.079
139 | V337D | 1.2 ± 0.39
140 | V337W | 0.54 ± 0.15
141 | Q371I | 1.52 ± 0.3
142 | I29W | 1.63 ± 0.21
143 | I29Y | 1.12 ± 0.28
144 | I29C | 1.41 ± 0.41

Row | Variant | STK11 functional score
145 | I29H | 0.0412 ± 0.14
146 | D176G | -0.169 ± 0.064
147 | L54R | 0.812 ± 0.087
148 | L102M | 0.857 ± 0.19
149 | L102H | 1.61 ± 0.3
150 | L102R | 0.466 ± 0.086
151 | L102T | 0.0689 ± 0.37
152 | L102Y | 1.2 ± 0.37
153 | G268S | 1.55 ± 0.18
154 | G268Y | 1.32 ± 0.19
155 | G268L | 1.56 ± 0.23
156 | E396Q | 1.18 ± 0.64
157 | S59N | 1.45 ± 0.2
158 | R103V | 0.764 ± 0.15
159 | V20A | 1.29 ± 0.21
160 | D141P | -0.241 ± 0.11
161 | C73D | 1.49 ± 0.27
162 | C73G | 1 ± 0.2
163 | L164P | -0.0524 ± 0.1
164 | L164R | -0.302 ± 0.12
165 | T185G | 0.548 ± 0.091
166 | V63Q | 0.451 ± 0.38
167 | V63C | 1.4 ± 0.54
